# Laboratory results from US20240041989A1 (UNIVERSITY OF KENTUCKY RESEARCH FOUNDATION, published 2024).
# What was measured:
# [1] = target: T1, Human FcRn, soluble single-chain fusion protein (B2M-(GGGGS)3-heavy chain without transmembrane domain-6xHis) (human, UniProt P61769 21-119; P55899 24-297); experiment: ELISA, FcRn coated on plate, pH 6.0
# T1 construct: also called neonatal Fc receptor; hFcRn
# Method: (§1) In vitro binding affinity assay. The binding affinity of the BChE fusion proteins corresponding to CocH3-Fc (SEQ ID NO: 9), CocH3-Fc(M6) (SEQ ID NO: 10), CocH3G-Fc(M3) (SEQ ID NO: 11), CocH3G-Fc(M4) (SEQ ID NO: 12), CocH3G-Fc(M6) (SEQ ID NO: 13), CocH5G-Fc(M3) (SEQ ID NO: 14), CocH5G-Fc(M4) (SEQ ID NO: 15), and CocH5G-Fc(M6) (SEQ ID NO: 16), BChE-Fc(M3) (SEQ ID NO: 17), BChE-Fc(M4) (SEQ ID NO: 18), and BChE-Fc(M6) (SEQ ID NO: 19) with FcRn was determined by using an enzyme-linked immunosorbent assay (ELISA). 400 ng of the 6×His-tagged FcRn in 100 μL 0.05 M PBS, pH 7.4, was immobilized in a 96-well flat-bottomed EIA plate (Corning) at 4° C. overnight (or 37° C. for 2 hours). At the same time, corresponding empty wells without FcRn coating were left as a negative control. The liquid was dumped from the plates and the rest was drained on a paper towel. Coated wells were blocked with blocking buffer (0.05 M PBS, pH 6.0, containing 1 mg/ml casein) (250 μL/well) at room temperature (RT) for 1 hour. After washing twice with washing buffer (0.05 M PBS, pH 6.0) (250 μL/well), 100 μL of BChE fusion protein diluted in blocking buffer, pH 6.0 was added to each well at a range of concentrations. The plate was then covered with an adhesive plastic and incubated, with continuous shaking, at RT for 1 hour. After washing three times with washing buffer, an enzyme horseradish peroxidase (HRP)-conjugated antibody (anti-human IgG-Fc Ab-HRP) (70 μL/well), diluted with blocking buffer at a ratio of 1:20,000, was added into each well and incubated at RT for 30 minutes on a shaker. The wells were then washed three times with washing buffer (250 μL/well) before 250 μL TMB substrate was added to the wells. The ELISA plate was kept in the dark until the desired color developed. The reaction was stopped with 100 μL of 0.5 M HCl. The absorbance (the developed blue color) was measured at 450 nm using a microplate reader. All measurements were performed in triplicate or quadruplicate.
# [2] = target: T1, Human FcRn, soluble single-chain fusion …; experiment: ELISA, FcRn coated on plate, pH 6.0, anti-human IgG-Fc-HRP detection
# Method: as §1, with “After washing three times with washing buffer, an enzyme horseradish peroxidase (HRP)-conjugated antibody (anti-human IgG-Fc Ab-HRP) (70 μL/well), diluted with blocking buffer at a ratio of 1:20,000, was added into each well and incubated at RT for 30 minutes on a shaker. The wells were then washed three times with washing buffer (250 μL/well) before 250 μL TMB substrate was added to the wells. The ELISA plate was kept in the dark until the desired color developed. The reaction was stopped with 100 μL of 0.5 M HCl.” left out, “All measurements were performed in triplicate or quadruplicate.” left out
# [3] = target: T1, Human FcRn, soluble single-chain fusion …; experiment: ELISA, FcRn coated on plate, pH 6.0; reference CocH3-Fc
# Method: as §1, with “After washing three times with washing buffer, an enzyme horseradish peroxidase (HRP)-conjugated antibody (anti-human IgG-Fc Ab-HRP) (70 μL/well), diluted with blocking buffer at a ratio of 1:20,000, was added into each well and incubated at RT for 30 minutes on a shaker. The wells were then washed three times with washing buffer (250 μL/well) before 250 μL TMB substrate was added to the wells. The ELISA plate was kept in the dark until the desired color developed. The reaction was stopped with 100 μL of 0.5 M HCl.” left out, “All measurements were performed in triplicate or quadruplicate.” left out
# T1 sequence (P61769 other isoform, or with tags, fused parts or gaps limits assumed): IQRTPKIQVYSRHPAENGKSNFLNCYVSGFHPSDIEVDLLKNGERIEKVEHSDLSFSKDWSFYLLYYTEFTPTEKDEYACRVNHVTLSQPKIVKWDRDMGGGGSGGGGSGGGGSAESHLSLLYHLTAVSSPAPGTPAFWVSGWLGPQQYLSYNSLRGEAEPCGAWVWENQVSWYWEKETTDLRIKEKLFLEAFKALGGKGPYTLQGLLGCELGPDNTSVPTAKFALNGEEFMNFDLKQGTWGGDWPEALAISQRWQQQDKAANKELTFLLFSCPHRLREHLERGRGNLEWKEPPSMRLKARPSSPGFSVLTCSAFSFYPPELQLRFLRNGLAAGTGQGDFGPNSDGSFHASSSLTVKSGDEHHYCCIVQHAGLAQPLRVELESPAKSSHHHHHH
Binder,Kd [1] [nM],Kd [2] [nM],fold improvement in binding affinity against CocH3-Fc [3] [fold]
"BChE-Fc(M6) (Fc fusion, Wild-type BChE fused to Fc(M6)) EDDIIIATKNGKVRGMNLTVFGGTVTAFLGIPYAQPPLGRLRFKKPQSLTKWSDIWNATKYANSCCQNIDQSFPGFHGSEMWNPNTDLSEDCLYLNVWIPAPKPKNATVLIWIYGGGFQTGTSSLHVYDGKFLARVERVIVVSMNYRVGALGFLALPGNPEAPGNMGLFDQQLALQWVQKNIAAFGGNPKSVTLFGESAGAASVSLHLLSPGSHSLFTRAILQSGSFNAPWAVTSLYEARNRTLNLAKLTGCSRENETEIIKCLRNKDPQEILLNEAFVVPYGTPLSVNFGPTVDGDFLTDMPDILLELGQFKKTQILVGVNKDEGTAFLVYGAPGFSKDNNSIITRKEFQEGLKIFFPGVSEFGKESILFHYTDWVDDQRPENYREALGDVVGDYNFICPALEFTKKFSEWGNNAFFYYFEHRSSKLPWPEWMGVMHGYEIEFVFGLPLERRDNYTKAEEILSRSIVKRWANFAKYGNPNETQNNSTSWPVFKSTEQKYLTLNTESTRIMTKLRAQQCRFWTSFFPKVVEPKSCDKTHTCPPCPAPELLGGPSVFLFPPKPKDTLYITREPEVTCVVVDVSHEDPEVKFNWYVDGVEVHNAKTKPREEQYNSTYRVVSVLTVLHQDWLNGKEYKCKVSNKALPAPIEKTISKAKGQPREPQVYTLPPSREEMTKNQVSLTCLVKGFYPSDIAVEWESNGQPENNYKTTPPVLDSDGSFFLYSKLTVDKSRWQQGNVFSCSVMHEALHNHYTQKSLSLSPGK",40,–,–
"CocH3-Fc(M6) (Fc fusion, Expressed in CHO-S cells and purified on protein A; also called A530V/M567Y/S569T/T571E/D671E/L673M mutant of CocH3-Fc) EDDIIIATKNGKVRGMNLTVFGGTVTAFLGIPYAQPPLGRLRFKKPQSLTKWSDIWNATKYANSCCQNIDQSFPGFHGSEMWNPNTDLSEDCLYLNVWIPAPKPKNATVLIWIYGGGFQTGTSSLHVYDGKFLARVERVIVVSMNYRVGALGFLALPGNPEAPGNMGLFDQQLALQWVQKNIAAFGGNPKSVTLFGESSGAASVSLHLLSPGSHSLFTRAILQSGSANAPWAVTSLYEARNRTLNLAKLTGCSRENETEIIKCLRNKDPQEILLNEAFVVPYGTPLGVNFGPTVDGDFLTDMPDILLELGQFKKTQILVGVNKDEGTWFLVGGAPGFSKDNNSIITRKEFQEGLKIFFPGVSEFGKESILFHYTDWVDDQRPENYREALGDVVGDYNFICPALEFTKKFSEWGNNAFFYYFEHRSSKLPWPEWMGVMHGYEIEFVFGLPLERRDNYTKAEEILSRSIVKRWANFAKYGNPNETQNNSTSWPVFKSTEQKYLTLNTESTRIMTKLRAQQCRFWTSFFPKVVEPKSCDKTHTCPPCPAPELLGGPSVFLFPPKPKDTLYITREPEVTCVVVDVSHEDPEVKFNWYVDGVEVHNAKTKPREEQYNSTYRVVSVLTVLHQDWLNGKEYKCKVSNKALPAPIEKTISKAKGQPREPQVYTLPPSREEMTKNQVSLTCLVKGFYPSDIAVEWESNGQPENNYKTTPPVLDSDGSFFLYSKLTVDKSRWQQGNVFSCSVMHEALHNHYTQKSLSLSPGK",43,43,~100
CocH3G-Fc(M6) (Fc fusion) EDDIIIATKNGKVRGMNLTVFGGTVTAFLGIPYAQPPLGRLRFKKPQSLTKWSDIWNATKYANSCCQNIDQSFPGFHGSEMWNPNTDLSEDCLYLNVWIPAPKPKNATVLIWIYGGGFQTGTSSLHVYDGKFLARVERVIVVSMNYRVGALGFLALPGNPEAPGNMGLFDQQLALQWVQKNIAAFGGNPKSVTLFGESSGAASVSLHLLSPGSHSLFTRAILQSGSANAPWAVTSLYEARNRTLNLAKLTGCSRENETEIIKCLRNKDPQEILLNEAFVVPYGTPLGVNFGPTVDGDFLTDMPDILLELGQFKKTQILVGVNKDEGTWFLVGGAPGFSKDNNSIITRKEFQEGLKIFFPGVSEFGKESILFHYTDWVDDQRPENYREALGDVVGDYNFICPALEFTKKFSEWGNNAFFYYFEHRSSKLPWPEWMGVMHGYEIEFVFGLPLERRDNYTKAEEILSRSIVKRWANFAKYGNPNETQNNSTSWPVFKSTEQKYLTLNTESTRIMTKLRAQQCRFWGSFFPKVVEPKSCDKTHTCPPCPAPELLGGPSVFLFPPKPKDTLYITREPEVTCVVVDVSHEDPEVKFNWYVDGVEVHNAKTKPREEQYNSTYRVVSVLTVLHQDWLNGKEYKCKVSNKALPAPIEKTISKAKGQPREPQVYTLPPSREEMTKNQVSLTCLVKGFYPSDIAVEWESNGQPENNYKTTPPVLDSDGSFFLYSKLTVDKSRWQQGNVFSCSVMHEALHNHYTQKSLSLSPGK,40,–,–
CocH5G-Fc(M6) (Fc fusion) EDDIIIATKNGKVRGMNLTVFGGTVTAFLGIPYAQPPLGRLRFKKPQSLTKWSDIWNATKYANSCCQNIDQSFPGFHGSEMWNPNTDLSEDCLYLNVWIPAPKPKNATVLIWIYGGGFQTGTSSLHVYDGKFLARVERVIVVSMNYRVGALGFLALPGNPEAPGNMGLFDQQLALQWVQKNIAAFGGNPKSVTLFGESSGAASVSLHLLSPGSHSLFTRAILQSGSANAPWAVTSLYEARNRTLNLAKLTGCSRENETEIIKCLRNKDPQEILLNEAFVVPYGTALGVNFGPTVDGDFLTDMPDILLELGQFKKTQILVGVNKDEGTWFLVGGAPGFSKDNNSIITRKEFQEGLKIFFPGVSEFGKESILFHYTDWVDDQRPENYREALGDVVGDYNFICPALEFTKKFSEWGNNAFFYYFEHRSSKLPWPEWMGVMHGYEIEFVFGLPLERRDNYTKAEEILSRSIVKRWANFAKYGNPNETQNNSTSWPVFKSTEQKYLTLNTESTRIMTKLRAQQCRFWGSFFPKVVEPKSCDKTHTCPPCPAPELLGGPSVFLFPPKPKDTLYITREPEVTCVVVDVSHEDPEVKFNWYVDGVEVHNAKTKPREEQYNSTYRVVSVLTVLHQDWLNGKEYKCKVSNKALPAPIEKTISKAKGQPREPQVYTLPPSREEMTKNQVSLTCLVKGFYPSDIAVEWESNGQPENNYKTTPPVLDSDGSFFLYSKLTVDKSRWQQGNVFSCSVMHEALHNHYTQKSLSLSPGK,40,–,–
